Test results from patent US20240141072A1 (published 2024).

Columns and labels:
Experiment in all cases: Octet BLI; biotinylated huDLL3-IgG1 fusion on streptavidin tips; single 50 nM trispecific, conditioned medium
[1] = molecular target: T1, anti-DLL3 trispecific protein with DLL3 binding domain 42C07
T1 construct: trispecific, one chain
Protocol: (§1) Using the conditioned medium with known concentrations of the anti-DLL3 trispecific proteins, the relative binding affinities of the anti-DLL3 trispecific proteins toward human DLL3 protein were measured using a method where biotinylated version of human DLL3 protein were expressed as a human IgG1 fusion protein, and the binding affinity measurement was carried out in an Octet instrument with streptavidin tips.

[2] = molecular target: T2, anti-DLL3 trispecific protein with DLL3 binding domain 42D08
T2 construct: trispecific, one chain
Protocol: as §1

[3] = molecular target: T3, anti-DLL3 trispecific protein with DLL3 binding domain 42D07
T3 construct: trispecific, one chain
Protocol: as §1

[4] = molecular target: T4, anti-DLL3 trispecific protein with DLL3 binding domain 42H11
T4 construct: trispecific, one chain
T4 sequence (chain, as listed by the source): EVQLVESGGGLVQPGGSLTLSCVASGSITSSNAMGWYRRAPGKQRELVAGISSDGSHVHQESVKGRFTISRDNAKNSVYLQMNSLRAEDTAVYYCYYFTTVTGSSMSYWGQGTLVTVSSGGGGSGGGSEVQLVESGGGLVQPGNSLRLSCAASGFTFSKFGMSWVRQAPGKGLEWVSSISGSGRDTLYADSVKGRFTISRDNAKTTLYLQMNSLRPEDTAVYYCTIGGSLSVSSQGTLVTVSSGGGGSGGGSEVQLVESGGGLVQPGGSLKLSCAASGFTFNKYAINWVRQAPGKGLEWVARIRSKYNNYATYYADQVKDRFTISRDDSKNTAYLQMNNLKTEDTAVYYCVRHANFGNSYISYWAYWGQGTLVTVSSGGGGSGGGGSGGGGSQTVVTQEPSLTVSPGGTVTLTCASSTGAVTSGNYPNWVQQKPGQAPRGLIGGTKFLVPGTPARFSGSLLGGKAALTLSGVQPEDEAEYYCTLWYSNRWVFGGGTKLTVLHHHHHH
Protocol: as §1

[5] = molecular target: T5, anti-DLL3 trispecific protein with DLL3 binding domain 51G02
T5 construct: trispecific, one chain; also called 51G2
T5 sequence (chain, as listed by the source): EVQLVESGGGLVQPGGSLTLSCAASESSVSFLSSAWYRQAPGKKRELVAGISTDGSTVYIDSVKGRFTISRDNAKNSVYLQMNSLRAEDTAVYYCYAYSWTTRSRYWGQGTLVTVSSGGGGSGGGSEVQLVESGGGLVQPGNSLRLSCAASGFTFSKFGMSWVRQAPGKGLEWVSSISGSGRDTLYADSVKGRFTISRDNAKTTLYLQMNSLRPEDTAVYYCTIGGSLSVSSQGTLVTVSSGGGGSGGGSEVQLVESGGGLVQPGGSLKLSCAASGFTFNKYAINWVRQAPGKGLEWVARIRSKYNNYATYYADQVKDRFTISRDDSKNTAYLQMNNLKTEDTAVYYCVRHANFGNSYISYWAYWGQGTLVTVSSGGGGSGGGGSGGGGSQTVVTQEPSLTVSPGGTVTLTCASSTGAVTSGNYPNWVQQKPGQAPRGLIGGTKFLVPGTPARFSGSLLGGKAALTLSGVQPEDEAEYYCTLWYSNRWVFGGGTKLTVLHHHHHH
Protocol: as §1

[6] = molecular target: T6, anti-DLL3 trispecific protein with DLL3 binding domain 42C10
T6 construct: trispecific, one chain
Protocol: as §1

[7] = molecular target: T7, anti-DLL3 trispecific protein with DLL3 binding domain 53B05
T7 construct: trispecific, one chain
Protocol: as §1

[8] = molecular target: T8, anti-DLL3 trispecific protein with DLL3 binding domain 41D01
T8 construct: trispecific, one chain
Protocol: as §1

[9] = molecular target: T9, anti-DLL3 trispecific protein with DLL3 binding domain 42E01
T9 construct: trispecific, one chain
Protocol: as §1

[10] = molecular target: T10, anti-DLL3 trispecific protein with DLL3 binding domain 51F03
T10 construct: trispecific, one chain; also called 51F3
Protocol: as §1

[11] = molecular target: T11, anti-DLL3 trispecific protein with DLL3 binding domain 52B01
T11 construct: trispecific, one chain; also called 52B1
T11 sequence (chain, as listed by the source): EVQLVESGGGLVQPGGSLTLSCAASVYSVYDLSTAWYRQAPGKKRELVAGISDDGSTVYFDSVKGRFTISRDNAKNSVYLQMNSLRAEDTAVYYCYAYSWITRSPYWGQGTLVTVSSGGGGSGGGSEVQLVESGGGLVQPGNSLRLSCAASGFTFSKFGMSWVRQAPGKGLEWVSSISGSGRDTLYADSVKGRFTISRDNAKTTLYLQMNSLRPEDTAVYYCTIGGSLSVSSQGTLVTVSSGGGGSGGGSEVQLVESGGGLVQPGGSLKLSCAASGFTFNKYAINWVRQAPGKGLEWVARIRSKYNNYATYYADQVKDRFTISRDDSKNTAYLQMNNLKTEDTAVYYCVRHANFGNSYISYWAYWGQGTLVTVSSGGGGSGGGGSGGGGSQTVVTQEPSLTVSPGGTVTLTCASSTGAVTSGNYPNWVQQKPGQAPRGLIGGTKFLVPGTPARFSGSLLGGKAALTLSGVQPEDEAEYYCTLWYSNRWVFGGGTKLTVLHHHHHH
Protocol: as §1

[12] = molecular target: T12, anti-DLL3 trispecific protein with DLL3 binding domain 51A03
T12 construct: trispecific, one chain
Protocol: as §1

[13] = molecular target: T13, anti-DLL3 trispecific protein with DLL3 binding domain 51B11
T13 construct: trispecific, one chain
Protocol: as §1

[14] = molecular target: T14, anti-DLL3 trispecific protein with DLL3 binding domain 41G01
T14 construct: trispecific, one chain
Protocol: as §1

[15] = molecular target: T15, anti-DLL3 trispecific protein with DLL3 binding domain 42F10
T15 construct: trispecific, one chain
T15 sequence (chain, as listed by the source): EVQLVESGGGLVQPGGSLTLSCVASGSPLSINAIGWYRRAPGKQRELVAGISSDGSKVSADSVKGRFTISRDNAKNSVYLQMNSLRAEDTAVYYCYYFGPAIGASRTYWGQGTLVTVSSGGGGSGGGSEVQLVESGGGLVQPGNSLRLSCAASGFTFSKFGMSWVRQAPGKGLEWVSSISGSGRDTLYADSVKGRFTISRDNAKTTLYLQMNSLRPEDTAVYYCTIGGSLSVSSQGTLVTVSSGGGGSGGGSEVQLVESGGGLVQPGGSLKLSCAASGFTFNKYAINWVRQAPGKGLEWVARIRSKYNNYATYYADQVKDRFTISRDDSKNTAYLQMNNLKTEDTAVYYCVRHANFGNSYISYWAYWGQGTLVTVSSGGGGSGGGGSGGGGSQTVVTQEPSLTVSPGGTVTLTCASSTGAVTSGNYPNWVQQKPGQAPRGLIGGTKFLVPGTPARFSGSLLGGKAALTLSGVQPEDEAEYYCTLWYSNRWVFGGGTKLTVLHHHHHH
Protocol: as §1

[16] = molecular target: T16, anti-DLL3 trispecific protein with DLL3 binding domain 42G07
T16 construct: trispecific, one chain
Protocol: as §1

[17] = molecular target: T17, anti-DLL3 trispecific protein with DLL3 binding domain 42F08
T17 construct: trispecific, one chain
Protocol: as §1

[18] = molecular target: T18, anti-DLL3 trispecific protein with DLL3 binding domain 51G04
T18 construct: trispecific, one chain
Protocol: as §1

[19] = molecular target: T19, anti-DLL3 trispecific protein with DLL3 binding domain 42C01
T19 construct: trispecific, one chain
T19 sequence (chain, as listed by the source): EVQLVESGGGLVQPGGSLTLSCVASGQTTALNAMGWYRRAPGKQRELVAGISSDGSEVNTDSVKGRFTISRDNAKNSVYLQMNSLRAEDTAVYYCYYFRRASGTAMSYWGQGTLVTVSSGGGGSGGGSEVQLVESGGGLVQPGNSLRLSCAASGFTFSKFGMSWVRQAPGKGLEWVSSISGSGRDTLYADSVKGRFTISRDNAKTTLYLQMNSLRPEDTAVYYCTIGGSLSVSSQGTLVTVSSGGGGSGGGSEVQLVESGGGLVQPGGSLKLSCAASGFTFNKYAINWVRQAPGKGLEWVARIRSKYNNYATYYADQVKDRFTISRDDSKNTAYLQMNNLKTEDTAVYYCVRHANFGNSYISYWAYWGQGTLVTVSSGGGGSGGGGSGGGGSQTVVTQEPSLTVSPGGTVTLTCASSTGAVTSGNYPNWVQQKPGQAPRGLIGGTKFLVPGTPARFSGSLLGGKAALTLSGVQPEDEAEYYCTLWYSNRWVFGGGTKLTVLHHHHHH
Protocol: as §1

[20] = molecular target: T20, anti-DLL3 trispecific protein with DLL3 binding domain 53A04
T20 construct: trispecific, one chain
Protocol: as §1

[21] = molecular target: T21, anti-DLL3 trispecific protein with DLL3 binding domain 42E07
T21 construct: trispecific, one chain
T21 sequence (chain, as listed by the source): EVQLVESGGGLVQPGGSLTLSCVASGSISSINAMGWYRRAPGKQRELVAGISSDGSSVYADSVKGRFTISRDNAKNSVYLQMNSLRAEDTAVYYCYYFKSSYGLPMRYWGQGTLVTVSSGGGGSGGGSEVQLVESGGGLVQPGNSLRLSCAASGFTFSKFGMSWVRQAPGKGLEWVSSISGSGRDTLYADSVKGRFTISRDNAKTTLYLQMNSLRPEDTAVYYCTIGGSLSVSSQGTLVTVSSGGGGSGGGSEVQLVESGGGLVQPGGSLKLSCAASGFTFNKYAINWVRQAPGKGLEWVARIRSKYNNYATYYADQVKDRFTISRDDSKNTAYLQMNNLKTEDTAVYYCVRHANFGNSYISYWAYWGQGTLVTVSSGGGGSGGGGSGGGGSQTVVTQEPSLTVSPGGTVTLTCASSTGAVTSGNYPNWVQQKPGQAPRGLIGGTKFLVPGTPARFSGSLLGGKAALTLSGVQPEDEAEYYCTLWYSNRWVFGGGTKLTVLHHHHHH
Protocol: as §1

[22] = molecular target: T22, anti-DLL3 trispecific protein with DLL3 binding domain 51E05
T22 construct: trispecific, one chain
Protocol: as §1

[23] = molecular target: T23, anti-DLL3 trispecific protein with DLL3 binding domain 51F04
T23 construct: trispecific, one chain
Protocol: as §1

[24] = molecular target: T24, anti-DLL3 trispecific protein with DLL3 binding domain 51B01
T24 construct: trispecific, one chain
T24 sequence (chain, as listed by the source): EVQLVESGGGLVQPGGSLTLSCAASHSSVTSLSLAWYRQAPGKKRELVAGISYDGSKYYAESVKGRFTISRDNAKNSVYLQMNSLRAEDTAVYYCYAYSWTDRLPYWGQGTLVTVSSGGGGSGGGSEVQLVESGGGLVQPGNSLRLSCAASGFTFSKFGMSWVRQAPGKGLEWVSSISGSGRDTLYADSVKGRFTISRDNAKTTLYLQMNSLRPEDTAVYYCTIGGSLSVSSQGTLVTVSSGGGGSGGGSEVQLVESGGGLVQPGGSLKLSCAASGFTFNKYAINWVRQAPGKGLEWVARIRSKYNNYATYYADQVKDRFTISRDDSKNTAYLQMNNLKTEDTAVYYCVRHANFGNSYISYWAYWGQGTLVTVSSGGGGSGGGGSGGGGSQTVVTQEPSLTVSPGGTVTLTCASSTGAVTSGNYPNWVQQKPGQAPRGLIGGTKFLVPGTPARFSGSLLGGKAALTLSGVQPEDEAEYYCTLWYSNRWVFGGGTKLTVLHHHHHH
Protocol: as §1

[25] = molecular target: T25, anti-DLL3 trispecific protein with DLL3 binding domain 41D02
T25 construct: trispecific, one chain
Protocol: as §1

[26] = molecular target: T26, anti-DLL3 trispecific protein with DLL3 binding domain 42D06
T26 construct: trispecific, one chain
Protocol: as §1

[27] = molecular target: T27, anti-DLL3 trispecific protein with DLL3 binding domain 51B04
T27 construct: trispecific, one chain
T27 sequence (chain, as listed by the source): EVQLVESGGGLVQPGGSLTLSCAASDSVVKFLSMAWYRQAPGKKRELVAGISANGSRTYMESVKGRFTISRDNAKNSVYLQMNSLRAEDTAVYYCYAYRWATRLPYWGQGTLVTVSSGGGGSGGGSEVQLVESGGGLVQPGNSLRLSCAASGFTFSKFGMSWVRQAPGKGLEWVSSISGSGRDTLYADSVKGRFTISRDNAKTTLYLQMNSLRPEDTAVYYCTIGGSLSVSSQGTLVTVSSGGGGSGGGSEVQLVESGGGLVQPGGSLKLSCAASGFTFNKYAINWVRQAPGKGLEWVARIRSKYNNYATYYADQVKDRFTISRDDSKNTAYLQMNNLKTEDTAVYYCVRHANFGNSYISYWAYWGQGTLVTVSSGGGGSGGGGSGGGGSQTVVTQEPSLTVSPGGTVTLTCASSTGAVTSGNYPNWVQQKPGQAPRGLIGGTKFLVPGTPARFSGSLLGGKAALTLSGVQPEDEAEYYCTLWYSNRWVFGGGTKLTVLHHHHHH
Protocol: as §1

[28] = molecular target: T28, anti-DLL3 trispecific protein with DLL3 binding domain 42C11
T28 construct: trispecific, one chain
Protocol: as §1

T1 sequence (chain, as listed by the source): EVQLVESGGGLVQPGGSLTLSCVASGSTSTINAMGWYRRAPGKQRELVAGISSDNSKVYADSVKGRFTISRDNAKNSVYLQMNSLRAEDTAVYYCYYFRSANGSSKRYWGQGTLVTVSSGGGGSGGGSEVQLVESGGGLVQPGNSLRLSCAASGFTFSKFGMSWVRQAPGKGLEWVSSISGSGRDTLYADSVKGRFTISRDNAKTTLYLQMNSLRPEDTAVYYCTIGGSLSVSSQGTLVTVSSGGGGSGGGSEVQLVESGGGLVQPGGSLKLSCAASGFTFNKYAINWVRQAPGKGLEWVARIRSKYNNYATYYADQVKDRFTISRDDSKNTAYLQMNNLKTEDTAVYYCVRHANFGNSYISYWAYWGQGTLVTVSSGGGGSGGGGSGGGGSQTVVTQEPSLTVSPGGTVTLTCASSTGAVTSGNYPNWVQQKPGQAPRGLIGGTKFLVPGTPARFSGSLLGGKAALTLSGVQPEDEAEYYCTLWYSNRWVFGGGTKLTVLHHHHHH

- Kd [1]: 6.4 nM
- Kd [2]: 1.3 nM
- Kd [3]: 5.3 nM
- Kd [4]: 3.1 nM
- Kd [5]: 1.3 nM
- Kd [6]: 3.2 nM
- Kd [7]: 0.6 nM
- Kd [8]: 1.4 nM
- Kd [9]: 4 nM
- Kd [10]: 1.4 nM
- Kd [11]: 0.61 nM
- Kd [12]: 2.2 nM
- Kd [13]: 2.4 nM
- Kd [14]: 4 nM
- Kd [15]: 17 nM
- Kd [16]: 1.3 nM
- Kd [17]: 3.2 nM
- Kd [18]: 21 nM
- Kd [19]: 3.6 nM
- Kd [20]: 0.42 nM
- Kd [21]: 3.9 nM
- Kd [22]: 0.97 nM
- Kd [23]: 6.7 nM
- Kd [24]: 1.6 nM
- Kd [25]: 2.7 nM
- Kd [26]: 1.5 nM
- Kd [27]: 16 nM
- Kd [28]: 2.3 nM
B1: biotinylated human DLL3 protein expressed as a human IgG1 fusion protein (Fc fusion, not shown: a dimerising Fc or GST)
chain: AGVFELQIHSFGPGPGPGAPRSPCSARLPCRLFFRVCLKPGLSEEAAESPCALGAALSARGPVYTEQPGAPAPDLPLPDGLLQVPFRDAWPGTFSFIIETWREELGDQIGGPAWSLLARVAGRRRLAAGGPWARDIQRAGAWELRFSYRARCEPPAVGTACTRLCRPRSAPSRCGPGLRPCAPLEDECEAPLVCRAGCSPEHGFCEQPGECRCLEGWTGPLCTVPVSTSSCLSPRGPSSATTGCLVPGPGPCDGNPCANGGSCSETPRSFECTCPRGFYGLRCEVSGVTCADGPCFNGGLCVGGADPDSAYICHCPPGFQGSNCEKRVDRCSLQPCRNGGLCLDLGHALRCRCRAGFAGPRCEHDLDDCAGRACANGGTCVEGGGAHRCSCALGFGGRDCRERADPCAARPCAHGGRCYAHFSGLVCACAPGYMGARCEFPVHPDGASALPAAPPGLRPGDPQRYL
modifications: biotinylated
